Assay results taken from patent CN117586402A (HEFEI TIANGANG IMMUNOLOGY PHARMACEUTICAL CO LTD, dated 2024).

Target: T1, NKp80 on human primary T cells and NK cells (人PBMC中CD3+ T细胞和CD56+ NK细胞) (人 (human), UniProt Q9NZS2 1-231)
T1 construct: whole, on cells; also called 人原代T细胞和NK细胞
T1 sequence (looked up): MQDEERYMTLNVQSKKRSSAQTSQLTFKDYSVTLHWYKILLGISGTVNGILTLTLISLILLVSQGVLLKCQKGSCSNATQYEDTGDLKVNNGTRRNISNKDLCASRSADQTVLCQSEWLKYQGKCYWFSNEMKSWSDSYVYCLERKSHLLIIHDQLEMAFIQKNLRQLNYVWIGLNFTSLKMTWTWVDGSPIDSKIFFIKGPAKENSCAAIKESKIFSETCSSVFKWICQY
Experiment: flow cytometry on human PBMC, CD3+ cells

B1: 嵌合NKp80抗体(53G7) (antibody, human IgG1, V domains shown)
VH: EVQLQQSGPELVNPGASVKISCKTSGYTFTDYYMNWVKQSHGKSLEWIGDIHPNNGGTSYNQKFKGKATLTVDKSSSTAYMELRSLTSEDSAVYYCARDYGGTYTNWAQNYFDYWGQGTTLTVSS
VL: DIVQTQSPASLAVSLGQRATISCRASQSVSTPSYSYMHWYQQKPGQPPKLLIKYASNLESGVPARFSGSGSGTDFTLNIHPVEEEDTATYYCQHSWEIPWTFGGGTKLEIKA
notes: also called 53G7抗体; 抗人NKp80抗体53G7
B1: binds.
